The record followed here is patent US20040214988, “Method for stabilization of proteins using non-natural amino acids” (California Institute of Technology, published 2004).

Data set [1] deals with Tfl-bZip (GCN4 bZip segment 226-281 with Tfl-GCN4-p1 dimerization domain) four d-position Leu of the GCN4-p1 zipper replaced by 5,5,5-trifluoroleucine (UniProt P03069). Briefly: EMSA. Conditions: densitometry of mobility shift. A general note: Mobility shift assays separate free from complexed probe on a gel.
Tfl-bZip (GCN4 bZip segment 226-281 with Tfl-GCN4-p1 dimerization domain) four d-position Leu of the GCN4-p1 zipper replaced by 5,5,5-trifluoroleucine, sequence (P03069 whole entry, the tested form may be a part): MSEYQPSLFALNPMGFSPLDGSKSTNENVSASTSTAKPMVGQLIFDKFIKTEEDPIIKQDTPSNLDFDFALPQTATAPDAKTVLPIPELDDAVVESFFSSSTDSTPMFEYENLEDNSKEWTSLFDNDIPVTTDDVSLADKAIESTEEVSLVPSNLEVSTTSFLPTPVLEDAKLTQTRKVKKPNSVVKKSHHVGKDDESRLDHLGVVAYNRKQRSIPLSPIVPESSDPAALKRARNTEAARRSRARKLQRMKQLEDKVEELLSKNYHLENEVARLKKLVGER
For data set [2], the target named is T1, Leu-bZip (GCN4 bZip segment, residues 226-281) (UniProt P03069 P03069:226-281). Briefly: EMSA; no protein-bound DNA seen. To be noted: protein: synthetic; tags: 56-residue peptide; chain copies: 2 (stated, dimer).
T1 sequence (P03069 226-281, one chain of several): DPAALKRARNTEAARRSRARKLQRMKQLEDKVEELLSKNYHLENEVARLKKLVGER
For data set [3], the target named is T1, Leu-bZip (GCN4 bZip segment, residues …). Briefly: EMSA; densitometry of mobility shift. To be noted: protein: synthetic; tags: 56-residue peptide; chain copies: 2 (stated, dimer).

Turning to “GTGGAGATGACTCATCTCCGG (double strand) [AP-1 site oligonucleotide]”, the Kd (commonly the equilibrium constant for the complex coming apart) in data set [1] was 12.5 nM.
Turning to “TGGAGATGACGTCATCTCCT (double strand) [CREB site oligonucleotide]”, in data set [1] (CD at 0 C also shows coil-to-helix transition on CREB DNA), the Kd is 5.4 nM.

B1: NON nonspecific oligonucleotide (dsDNA)
DNA 1: GATCCCAACACGTGTTGGGATC
DNA 2: GATCCCAACACGTGTTGGGATC
For B1, in data set [2], the binding result is given as “no binding”.

B2: AP-1 site oligonucleotide (dsDNA)
DNA 1: GTGGAGATGACTCATCTCCGG
DNA 2: CCGGAGATGAGTCATCTCCAC
Turning to B2, the Kd in data set [3] worked out at 12.8 nM.
